Here are results for 167 variants from the RNAGym collection of RNA variant scans (doi:10.7554/elife.80360).

Sequences and labels used below:
B1: Hairpin Ribozyme (parent)
chain: GUCCUCUUUCACGUGCGCGUGAAAGAGAGAAGUGAACCAGAGAAACACACGUUGUGGUAUAUUACCUGGUA

In this data set the parent is B1. Nature of the data set: self-cleavage, relative activity (ratio to wild type); higher = more cleavage; co-transcriptional.
Take C3A C16G: the self-cleavage came out at 0.587.

As for C3A C16U, the self-cleavage is 0.769.

For the variant U2C U63G, the self-cleavage stood at 0.

As for U2C U63C, the self-cleavage was determined as 0.109.

Take U2A C50G: the self-cleavage was found to be 0.189.

U2A G54A: the self-cleavage was determined as 0.143.

On to U2A G54C, for which the self-cleavage came out at 0.145.

Turning to C3A G32C, the self-cleavage came to 0.114.

As for C3A G32U, the self-cleavage is 0.0959.

C3A G32A: the self-cleavage was found to be 0.176.

As for U2G A44G, the self-cleavage came out at 0.0352.

With U2A A26C, the self-cleavage was 0.311.

With U2G U9C, the self-cleavage amounted to 0.231.

For U2G C16A, the self-cleavage is 0.398.

On to U2C A59U, for which the self-cleavage stood at 0.108.

In the case of U2C U14C, the self-cleavage worked out at 0.359.

Turning to U2C A11G, the self-cleavage came out at 0.172.

Regarding U2G G29A, the self-cleavage stood at 0.168.

In the case of U2A C4A, the self-cleavage was 0.165.

For the variant U2C C37A, the self-cleavage is 0.0991.

Regarding C3A U8G, the self-cleavage was 0.541.

Consider U2A A39G, for which the self-cleavage was 0.0775.

For U2A A39C, the self-cleavage came to 0.133.

On to C3A G34A, for which the self-cleavage worked out at 1.07.

For the variant U2G U7G, the self-cleavage is 0.35.

Regarding U2G U7C, the self-cleavage is 0.384.

On to U2G U7A, for which the self-cleavage is 0.255.

With U2C A64G, the self-cleavage turned out to be 0.123.

For U2G C66G, the self-cleavage was found to be 0.124.

Turning to U2C U62C, the self-cleavage came to 0.203.

Take U2G U60G: the self-cleavage turned out to be 0.278.

As for G1U A71U, the self-cleavage was 0.167.

On to C3A G57U, for which the self-cleavage worked out at 0.153.

For the variant U2A G27C, the self-cleavage came to 0.108.

On to U2A G27A, for which the self-cleavage came out at 0.127.

With U2C C46U, the self-cleavage came to 0.133.

On to U2A G68C, for which the self-cleavage worked out at 0.154.

Take U2C G56U: the self-cleavage worked out at 0.178.

In the case of U2C G42A, the self-cleavage came out at 0.0595.

Regarding U2A A61U, the self-cleavage was 0.159.

For U2A A61G, the self-cleavage was determined as 0.106.

With U2G A31U, the self-cleavage stood at 0.

U2G A31C: the self-cleavage was found to be 0.0758.

Turning to U2G A31G, the self-cleavage was found to be 0.281.

Consider U2A A24C, for which the self-cleavage was 0.134.

For the variant G1U U63A, the self-cleavage came out at 0.215.

For the variant G1U U63C, the self-cleavage came to 0.181.

On to U2A U20G, for which the self-cleavage was 0.201.

On to U2C A24G, for which the self-cleavage is 0.154.

In the case of U2C C10G, the self-cleavage was determined as 0.118.

Consider U2C C10U, for which the self-cleavage is 0.159.

On to U2C C10A, for which the self-cleavage was found to be 0.117.

Regarding G1U U9A, the self-cleavage was determined as 0.115.

U2A U5A: the self-cleavage stood at 0.137.

For U2A U5C, the self-cleavage was found to be 0.137.

On to U2A C10A, for which the self-cleavage was 0.132.

U2A C10G: the self-cleavage worked out at 0.238.

Consider U2A C10U, for which the self-cleavage was determined as 0.208.

U2A U7G: the self-cleavage amounted to 0.197.

As to U2A U7C, the self-cleavage turned out to be 0.273.

With U2G G27U, the self-cleavage is 0.172.

With U2G G27A, the self-cleavage amounted to 0.139.

In the case of U2C G40U, the self-cleavage turned out to be 0.103.

As for U2A G15C, the self-cleavage amounted to 0.391.

In the case of G1U U2C, the self-cleavage stood at 0.232.

With U2C C50U, the self-cleavage stood at 0.252.

U2C U55G: the self-cleavage was determined as 0.0647.

As for U2C U55C, the self-cleavage was 0.0641.

As to G1U C4U, the self-cleavage was determined as 0.206.

In the case of U2G U63A, the self-cleavage came to 0.149.

U2A G42A: the self-cleavage stood at 0.107.

For U2C A61C, the self-cleavage is 0.0902.

Turning to U2C G21U, the self-cleavage was found to be 0.185.

Take U2C G21C: the self-cleavage was 0.213.

As to U2G A47U, the self-cleavage was determined as 0.0492.

Turning to U2G G34C, the self-cleavage came out at 0.736.

For the variant U2C A45U, the self-cleavage came to 0.0729.

U2G C65A: the self-cleavage stood at 0.402.

With U2G C65U, the self-cleavage was 0.163.

As for C3A G68A, the self-cleavage stood at 0.172.

On to C3A G68C, for which the self-cleavage came to 0.211.

Regarding U2C U33C, the self-cleavage amounted to 0.223.

As to U2C U33G, the self-cleavage came out at 0.0942.

Consider U2C C38G, for which the self-cleavage was 0.157.

Consider U2A G40U, for which the self-cleavage was found to be 0.129.

In the case of U2G C3U, the self-cleavage stood at 0.181.

Consider U2G C37A, for which the self-cleavage came out at 0.131.

U2G C37U: the self-cleavage is 0.319.

For the variant U2G G54A, the self-cleavage is 0.114.

With C3A C6A, the self-cleavage turned out to be 0.484.

Consider G1U C50G, for which the self-cleavage worked out at 0.124.

Take U2G U5G: the self-cleavage was found to be 0.0759.

For G1U G13A, the self-cleavage was 0.0563.

As for U2A U33G, the self-cleavage was 0.151.

Consider U2A U33C, for which the self-cleavage amounted to 0.0635.

G1U A47C: the self-cleavage was 0.107.

As for G1U A47G, the self-cleavage was 0.046.

As to U2G U70G, the self-cleavage is 0.244.

For U2G U70C, the self-cleavage is 0.12.

Regarding C3A U33G, the self-cleavage was found to be 0.146.

C3A U33C: the self-cleavage turned out to be 0.191.

On to C3A A24G, for which the self-cleavage came to 0.704.

Turning to U2C U5G, the self-cleavage turned out to be 0.0932.

On to U2C U5C, for which the self-cleavage was found to be 0.0555.

As for U2C U8A, the self-cleavage came out at 0.191.

On to U2C U8G, for which the self-cleavage came out at 0.118.

As for U2A A71G, the self-cleavage came out at 0.405.

Turning to U2C G68U, the self-cleavage was 0.161.

For the variant U2G C50G, the self-cleavage was found to be 0.1.

Regarding U2G C50U, the self-cleavage worked out at 0.157.

On to G1U G27C, for which the self-cleavage is 0.113.

As to C3A U5C, the self-cleavage is 0.247.

As for C3A U5G, the self-cleavage turned out to be 0.117.

On to G1U U52G, for which the self-cleavage came to 0.143.

As for U2A C48G, the self-cleavage is 0.162.

Take U2A C48U: the self-cleavage is 0.104.

Turning to G1U A64U, the self-cleavage turned out to be 0.119.

With G1U A64C, the self-cleavage turned out to be 0.166.

With C3A U7A, the self-cleavage came to 0.822.

With C3A U7G, the self-cleavage was 0.703.

U2C U53G: the self-cleavage is 0.0768.

Regarding U2C U53C, the self-cleavage came out at 0.0859.

As to G1U C3U, the self-cleavage came out at 0.255.

With U2A G19U, the self-cleavage is 0.244.

Regarding U2C G17A, the self-cleavage amounted to 0.15.

For U2C G17C, the self-cleavage came to 0.168.

As for C3A G56C, the self-cleavage was determined as 0.147.

For the variant C3A G51A, the self-cleavage is 0.819.

On to U2C A44G, for which the self-cleavage was 0.275.

As for U2C A44C, the self-cleavage was found to be 0.0731.

On to C3A G40C, for which the self-cleavage came out at 0.0884.

In the case of G1U G32U, the self-cleavage is 0.0476.

On to U2A A11U, for which the self-cleavage worked out at 0.269.

In the case of U2A C46G, the self-cleavage was 0.0818.

With C3A C12G, the self-cleavage worked out at 0.636.

With C3A C12A, the self-cleavage was 0.603.

With U2A G57U, the self-cleavage is 0.109.

G1U G51U: the self-cleavage was determined as 0.133.

As to U2C A35G, the self-cleavage worked out at 0.243.

As to U2C A35U, the self-cleavage came to 0.259.

U2C U60G: the self-cleavage is 0.226.

For U2C U60C, the self-cleavage worked out at 0.222.

As for U2C U60A, the self-cleavage came out at 0.312.

Turning to U2C G34U, the self-cleavage was determined as 0.316.

As for U2C G34C, the self-cleavage is 0.208.

As for U2C C18A, the self-cleavage amounted to 0.118.

Consider U2C C18G, for which the self-cleavage came out at 0.154.

G1U U58G: the self-cleavage amounted to 0.253.

On to C3A A47C, for which the self-cleavage is 0.239.

With U2G A39C, the self-cleavage amounted to 0.177.

In the case of U2C G51U, the self-cleavage was found to be 0.172.

On to U2G A26G, for which the self-cleavage turned out to be 0.277.

Regarding U2C C65A, the self-cleavage amounted to 0.195.

Take U2C G13C: the self-cleavage is 0.121.

On to U2C G13U, for which the self-cleavage was 0.121.

Take U2A U14G: the self-cleavage is 0.235.

For U2A U14A, the self-cleavage amounted to 0.174.

On to U2A U58C, for which the self-cleavage amounted to 0.21.

With U2A U58G, the self-cleavage was 0.161.

Regarding C3A A23C, the self-cleavage was 0.484.

Turning to C3A A23U, the self-cleavage came out at 0.619.

U2A G17C: the self-cleavage turned out to be 0.22.

With U2C G15C, the self-cleavage was 0.243.

For U2C G19U, the self-cleavage was 0.161.

Turning to U2C A23C, the self-cleavage was 0.144.

On to U2C G57C, for which the self-cleavage is 0.242.

For the variant U2A A43C, the self-cleavage was found to be 0.114.
